Earlier results on three substances are cited in paper PMC10910082.

Like-named read-outs stand apart in the source and are kept apart here.

In data set [1] the target is CD155 (Homo sapiens) (UniProt P15151).
The target is the same in data set [2]. This is another data set of the same source.
In data set [3] the target is CD86 (Homo sapiens) (UniProt P42081).
Data set [4] concerns the target CD80 (Homo sapiens) (UniProt P33681).
Chain of UniProt P33681 (P33681 35-242): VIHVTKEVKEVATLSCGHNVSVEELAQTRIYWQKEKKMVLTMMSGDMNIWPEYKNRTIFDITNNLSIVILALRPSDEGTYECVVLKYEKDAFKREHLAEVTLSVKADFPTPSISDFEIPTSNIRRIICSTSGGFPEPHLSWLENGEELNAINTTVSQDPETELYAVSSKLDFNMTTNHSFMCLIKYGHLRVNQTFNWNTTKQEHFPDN

Chain of UniProt P15151 (P15151 21-343): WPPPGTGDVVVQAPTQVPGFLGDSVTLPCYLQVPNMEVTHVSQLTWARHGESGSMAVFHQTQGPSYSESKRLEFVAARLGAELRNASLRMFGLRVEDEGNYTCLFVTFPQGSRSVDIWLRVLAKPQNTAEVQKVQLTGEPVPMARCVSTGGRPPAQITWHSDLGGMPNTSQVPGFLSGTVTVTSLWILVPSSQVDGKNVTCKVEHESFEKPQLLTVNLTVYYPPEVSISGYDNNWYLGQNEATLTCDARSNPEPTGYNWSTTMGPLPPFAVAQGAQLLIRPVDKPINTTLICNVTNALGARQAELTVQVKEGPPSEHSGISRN
Chain of UniProt P42081 (P42081 24-247): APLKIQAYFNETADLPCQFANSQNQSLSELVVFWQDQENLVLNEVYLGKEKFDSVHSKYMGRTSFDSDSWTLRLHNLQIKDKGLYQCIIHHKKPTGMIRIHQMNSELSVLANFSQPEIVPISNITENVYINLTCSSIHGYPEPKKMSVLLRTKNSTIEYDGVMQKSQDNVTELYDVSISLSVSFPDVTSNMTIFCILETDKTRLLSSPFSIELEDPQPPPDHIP

CD226 (from UniProt Q15762): in data set [1], the dissociation constant Kd was 116 nM. Turning to TIGIT (from UniProt Q495A1), in data set [2], the Kd was 2 nM. CD28 (from UniProt P10747): the Kd in data set [3] is 27500 nM; in data set [4] it was 4000 nM.

For orientation: Kd means the equilibrium constant for the complex coming apart.
